# B1: Anti-Trop-2-BI-P205 (antibody, V domains shown)
# VH: SALMSRLTISKDTSKNQFSLKLSSVTAADTAVYYCARDENWDGAWFAYWGQGTLVTVSS
# VL: DIVMTQSPDSLAVSLGERATINCKSSQSLLNSGTRKNYLAWYQQKPGQPPKLLISWASSRESGVPDRFSGSGSGTDFTLTISSLQAEDVAVYYCKQSYNLFTFGGGTKVEIKR
# modifications: BI-P205 maytansinoid drug-linker on cysteines; positions not given; DAR 3.6, 4.9 or 7.1
# B2: Anti-Trop-2-BI-P206 (antibody, V domains shown)
# VH: SALMSRLTISKDTSKNQFSLKLSSVTAADTAVYYCARDENWDGAWFAYWGQGTLVTVSS
# VL: DIVMTQSPDSLAVSLGERATINCKSSQSLLNSGTRKNYLAWYQQKPGQPPKLLISWASSRESGVPDRFSGSGSGTDFTLTISSLQAEDVAVYYCKQSYNLFTFGGGTKVEIKR
# modifications: BI-P206 maytansinoid drug-linker on cysteines; positions not given; DAR 3.6 or 4.5
# B3: Anti-Trop-2-BI-P204 (antibody, V domains shown)
# VH: SALMSRLTISKDTSKNQFSLKLSSVTAADTAVYYCARDENWDGAWFAYWGQGTLVTVSS
# VL: DIVMTQSPDSLAVSLGERATINCKSSQSLLNSGTRKNYLAWYQQKPGQPPKLLISWASSRESGVPDRFSGSGSGTDFTLTISSLQAEDVAVYYCKQSYNLFTFGGGTKVEIKR
# modifications: BI-P204 maytansinoid drug-linker on cysteines; positions not given; DAR 2.8 or 3.9
# B4: Anti-Trop-2-BI-P209 (antibody, V domains shown)
# VH: SALMSRLTISKDTSKNQFSLKLSSVTAADTAVYYCARDENWDGAWFAYWGQGTLVTVSS
# VL: DIVMTQSPDSLAVSLGERATINCKSSQSLLNSGTRKNYLAWYQQKPGQPPKLLISWASSRESGVPDRFSGSGSGTDFTLTISSLQAEDVAVYYCKQSYNLFTFGGGTKVEIKR
# modifications: BI-P209 maytansinoid drug-linker on cysteines; positions not given; DAR 6.2
# B5: Anti-Trop-2-BI-P207 (antibody, V domains shown)
# VH: SALMSRLTISKDTSKNQFSLKLSSVTAADTAVYYCARDENWDGAWFAYWGQGTLVTVSS
# VL: DIVMTQSPDSLAVSLGERATINCKSSQSLLNSGTRKNYLAWYQQKPGQPPKLLISWASSRESGVPDRFSGSGSGTDFTLTISSLQAEDVAVYYCKQSYNLFTFGGGTKVEIKR
# modifications: BI-P207 maytansinoid drug-linker on cysteines; positions not given; DAR 3.4 or 4.5
# B6: Anti-Trop-2-BI-P208 (antibody, V domains shown)
# VH: SALMSRLTISKDTSKNQFSLKLSSVTAADTAVYYCARDENWDGAWFAYWGQGTLVTVSS
# VL: DIVMTQSPDSLAVSLGERATINCKSSQSLLNSGTRKNYLAWYQQKPGQPPKLLISWASSRESGVPDRFSGSGSGTDFTLTISSLQAEDVAVYYCKQSYNLFTFGGGTKVEIKR
# modifications: BI-P208 maytansinoid drug-linker on cysteines; positions not given; DAR 3.0 or 4.3
# B7: Anti-Trop-2-Vc-MMAE (antibody, V domains shown)
# VH: SALMSRLTISKDTSKNQFSLKLSSVTAADTAVYYCARDENWDGAWFAYWGQGTLVTVSS
# VL: DIVMTQSPDSLAVSLGERATINCKSSQSLLNSGTRKNYLAWYQQKPGQPPKLLISWASSRESGVPDRFSGSGSGTDFTLTISSLQAEDVAVYYCKQSYNLFTFGGGTKVEIKR
# modifications: vc-MMAE drug-linker; conjugation site not stated; DAR 4
# Target: T1, Trophoblast cell-surface antigen-2 (Trop-2) (human, UniProt P09758 27-323)
# T1 sequence (looked up): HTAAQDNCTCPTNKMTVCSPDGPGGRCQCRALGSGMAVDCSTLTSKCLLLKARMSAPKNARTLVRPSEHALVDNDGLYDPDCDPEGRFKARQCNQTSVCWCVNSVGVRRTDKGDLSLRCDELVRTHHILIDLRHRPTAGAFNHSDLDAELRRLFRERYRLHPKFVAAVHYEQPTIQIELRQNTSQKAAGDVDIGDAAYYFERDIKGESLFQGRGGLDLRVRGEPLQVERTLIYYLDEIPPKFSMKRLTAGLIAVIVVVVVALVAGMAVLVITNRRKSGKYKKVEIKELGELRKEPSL
# Test: cell-based or functional assay
binder,measurement,value
B1,"IC50 (nM), in vitro cytotoxicity (CCK-8, 72 h), BxPC-3 cells (TROP2 +++), ADC at DAR 3.6",0.43 nM
same,"IC50 (nM), in vitro cytotoxicity (CCK-8, 72 h), BxPC-3 cells (TROP2 +++), ADC at DAR 7.1",0.52 nM
same,"IC50 (nM), in vitro cytotoxicity (CCK-8, 72 h), Colo205 cells (TROP2 +), ADC at DAR 7.1",26.1 nM
same,"IC50 (nM), in vitro cytotoxicity (CCK-8, 72 h), MDA-MB-468 cells (TROP2 ++), ADC at DAR 4.9",1.58 nM
same,"IC50 (nM), in vitro cytotoxicity (CCK-8, 72 h), MDA-MB-468 cells (TROP2 ++), ADC at DAR 7.1",0.47 nM
same,"IC50 (nM), in vitro cytotoxicity (CCK-8, 72 h), NCI-N87 cells (TROP2 ++/+), ADC at DAR 3.6",0.282 nM
B2,"IC50 (nM), in vitro cytotoxicity (CCK-8, 72 h), BxPC-3 cells (TROP2 +++), ADC at DAR 3.6",0.99 nM
same,"IC50 (nM), in vitro cytotoxicity (CCK-8, 72 h), MDA-MB-468 cells (TROP2 ++), ADC at DAR 4.5",2.66 nM
same,"IC50 (nM), in vitro cytotoxicity (CCK-8, 72 h), NCI-N87 cells (TROP2 ++/+), ADC at DAR 3.6",125 nM
B3,"IC50 (nM), in vitro cytotoxicity (CCK-8, 72 h), BxPC-3 cells (TROP2 +++), ADC at DAR 2.8",0.38 nM
same,"IC50 (nM), in vitro cytotoxicity (CCK-8, 72 h), MDA-MB-468 cells (TROP2 ++), ADC at DAR 3.9",1.81 nM
same,"IC50 (nM), in vitro cytotoxicity (CCK-8, 72 h), NCI-N87 cells (TROP2 ++/+), ADC at DAR 2.8",17.6 nM
B4,"IC50 (nM), in vitro cytotoxicity (CCK-8, 72 h), Colo205 cells (TROP2 +), ADC at DAR 6.2",> 500 nM
same,"IC50 (nM), in vitro cytotoxicity (CCK-8, 72 h), MDA-MB-468 cells (TROP2 ++), ADC at DAR 6.2",5.37 nM
B5,"IC50 (nM), in vitro cytotoxicity (CCK-8, 72 h), BxPC-3 cells (TROP2 +++), ADC at DAR 3.4",2.09 nM
same,"IC50 (nM), in vitro cytotoxicity (CCK-8, 72 h), MDA-MB-468 cells (TROP2 ++), ADC at DAR 4.5",4.29 nM
same,"IC50 (nM), in vitro cytotoxicity (CCK-8, 72 h), NCI-N87 cells (TROP2 ++/+), ADC at DAR 3.4",33.8 nM
B6,"IC50 (nM), in vitro cytotoxicity (CCK-8, 72 h), BxPC-3 cells (TROP2 +++), ADC at DAR 3.0",0.67 nM
same,"IC50 (nM), in vitro cytotoxicity (CCK-8, 72 h), MDA-MB-468 cells (TROP2 ++), ADC at DAR 4.3",2.22 nM
same,"IC50 (nM), in vitro cytotoxicity (CCK-8, 72 h), NCI-N87 cells (TROP2 ++/+), ADC at DAR 3.0",6.43 nM
B7,"IC50 (nM), in vitro cytotoxicity (CCK-8, 72 h), BxPC-3 cells (TROP2 +++), ADC at DAR 4",0.51 nM
same,"IC50 (nM), in vitro cytotoxicity (CCK-8, 72 h), Colo205 cells (TROP2 +), ADC at DAR 4",0.68 nM
same,"IC50 (nM), in vitro cytotoxicity (CCK-8, 72 h), MDA-MB-468 cells (TROP2 ++), ADC at DAR 4",0.54 nM
same,"IC50 (nM), in vitro cytotoxicity (CCK-8, 72 h), NCI-N87 cells (TROP2 ++/+), ADC at DAR 4",0.49 nM
